Consider four molecules from patent US20220323580A1 (Janssen / Centocor, published 2022).

Assay [1] concerns the target T1, recombinant human TNFα (human, UniProt P01375 77-233, 125I-labeled in the receptor blocking assay).
T1 construct: It is not tied to the protein used in the assays, so it is not used here; also called huTNFα; tumor necrosis factor alpha
The assay can be described thus: competition radioligand assay: mAb in hybridoma supernatant preincubated with 5 ng/ml 125I-TNFα, then cpm bound to plate-coated p55-sf2 counted; blocked partner p55-sf2. The procedure: Each sample was tested in duplicate. The results shown are representative of two independent experiments.
(§1) 50:1 of p55-sf2 at 0.5:g/ml in PBS was added to Optiplates to coat the wells during a one-hour incubation at 37° C. Serial dilutions of the eight TNV cell supernatants were prepared in 96-well round-bottom plates using PBS/0.1% BSA as diluent. […] The mixture was preincubated for one hour at RT. […] After 2 hrs at RT, Optiplates were washed three times with PBS-Tween. […] of Microscint-20 was added and the cpm bound determined using the TopCount […].

Assay [2] deals with T1, recombinant human TNFα. Kind of assay: cell-based or functional assay.
For assay [3], the target named is T1, recombinant human TNFα. The assay can be described thus: competition: 125I-TNFα binding to plate-coated p55-sf2, hybridoma supernatant. The procedure: as §1
The concentrations of the TNV mAbs in their respective cell supernatants were first determined by standard ELISA analysis for human IgG.

B1: TNV15 (antibody, human IgG1, V domains shown)
VH: QVQLVESGGGVVQPGRSLRLSCAASGFTFSSYAMHWVRQAPGKGLEWVAFILYDGSNKKYADSVKGRFTISRDNSKNALYLQMNSLRAEDTAVYYCARDRGVSAGGNYYYYGMDVWGQGTTVTVSS
VL: EIVLTQSPATLSLSPGERATLSCRASQSVSSYLAWYQQKPGQAPRLLIYDASNRATGIPARFSGSGSGTDFTLTISSLEPEDFAVYYCQQRSNWPPFTFGPGTKVDIK
notes: Totally human IgG1 kappa mAb from the GenTNV fusion, tested as hybridoma supernatant; also called GenTNV15.28.11; C415A
For B1, the “IC50 (read off the curve)” value with recombinant human TNFα [1] was ~4 ng/mL.

B2: TNV148 (antibody, V domains shown)
VH: QVQLVESGGGVVQPGRSLRLSCAASGFIFSSYAMHWVRQAPGNGLEWVAFMSYDGSNKKYADSVKGRFTISRDNPKNTLYLQMNSLRAEDTAVYYCARDRGIAAGGNYYYYGMDVWGQGTTVTVSS
VL: EIVLTQSPATLSLSPGERATLSCRASQSVYSYLAWYQQKPGQAPRLLIYDASNRATGIPARFSGSGSGTDFTLTISSLEPEDFAVYYCQQRSNWPPFTFGPGTKVDIK
notes: also called GenTNV148.26.12; C420A
As for B2, the “neutralizing TNFα bioactivity” value with recombinant human TNFα [2] is 4 fold (vs TNV14). The “fold better at blocking TNF binding (vs TNV118 and TNV14)” value in the assay with recombinant human TNFα [3] is ~4 fold. Besides, in the assay with recombinant human TNFα [1], the “IC50 (read off the curve)” value was ~4 ng/mL.

B3: TNV196 (antibody, human IgG1, V domains shown)
VH: QVQLVESGGGVVQPGRSLRLSCAASGFTFSSYAMHWVRQAPGKGLEWVAFISYDGSNKKSADSVKGRFTVSRDNSKNTLFLQMNSLRAEDTAVFYCARDRGIGAGGNYYYYGMDVWGQGTTVTVSS
VL: EIVLTQSPATLSLSPGERATLSCRASQSVYSYLAWYQQKPGQAPRLLIYDASNRATGIPARFSGSGSGTDFTLTISSLEPEDFAVYYCQQRSNWPPFTFGPGTKVDIK
notes: Totally human IgG1 kappa mAb from the GenTNV fusion, tested as hybridoma supernatant; also called GenTNV196.9.1; C421A
Turning to B3, the “neutralizing TNFα bioactivity” value with recombinant human TNFα [2] is 4 fold (vs TNV14). Also, in the assay with recombinant human TNFα [1], the “IC50 (read off the curve)” value is ~4 ng/mL.

B4: TNV86 (antibody, V domains shown)
VH: QVQLVESGGGVVQPGRSLRLSCAASGFIFSSYAMHWVRQAPGNGLEWVAFMSYDGSNKKYADSVKGRFTISRDNPKNTLYLQMNSLRAEDTAVYYCARDRGIAAGGNYYYYGMDVWGQGTTVTVSS
VL: EIVLTQSPATLSLSPGERATLSCRASQSVYSYLAWYQQKPGQAPRLLIYDASNRATGIPARFSGSGSGTDFTLTISSLEPEDFAVYYCQQRSNWPPFTFGPGTKVDIK
notes: also called GenTNV86.14.34; C417A
As for B4, in the assay with recombinant human TNFα [3], the “fold better at blocking TNF binding (vs TNV118 and TNV14)” value is ~4 fold.
